Data set [1] has as its target T1, Sp SPT (Sphingomonas paucimobilis, UniProt Q93UV0).
T1 construct: full-length soluble enzyme, pET28a, C-terminal His6 tag, E. coli BL21(DE3), Ni-NTA and gel filtration, homodimer ~90 kDa, PLP holoform
T1 sequence (Q93UV0 1-420): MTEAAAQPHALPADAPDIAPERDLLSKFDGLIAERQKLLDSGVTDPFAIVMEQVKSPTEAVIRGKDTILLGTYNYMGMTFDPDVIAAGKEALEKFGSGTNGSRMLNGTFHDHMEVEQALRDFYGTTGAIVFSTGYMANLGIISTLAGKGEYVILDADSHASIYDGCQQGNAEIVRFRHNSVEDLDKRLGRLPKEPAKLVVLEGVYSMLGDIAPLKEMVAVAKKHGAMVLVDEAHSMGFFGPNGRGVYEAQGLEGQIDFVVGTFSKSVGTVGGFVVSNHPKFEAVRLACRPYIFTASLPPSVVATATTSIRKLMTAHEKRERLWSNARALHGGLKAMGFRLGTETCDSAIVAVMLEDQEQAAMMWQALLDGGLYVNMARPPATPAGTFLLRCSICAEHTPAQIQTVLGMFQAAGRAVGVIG
In words: UV-visible spectroscopy, quinonoid peak at ~[…] nm. The data set is classed as binding. The conditions noted are these: 1.5 mM analogue, 50 mM L-serine, 40 μM enzyme, 25 °C, 15 min.

Data set [2] concerns T2, N[C@@H](CO)C(=O)O.
T2 construct: full-length soluble enzyme, pET28a, C-terminal His6 tag, E. coli BL21(DE3), Ni-NTA and gel filtration, homodimer ~90 kDa, PLP holoform
In words: DTNB assay of CoASH release, Michaelis-Menten fit. In kind it is biochemical, Sphingomonas paucimobilis. As to conditions: co-substrate palmitoyl-CoA. An excerpt:
(§1) DTNB assay of CoASH release, Michaelis-Menten fit on Sp SPT

The test system of data set [3] is T3, CCCCCCCCCCCCCCCC(=O)SCCNC(=O)CCNC(=O)[C@H](O)C(C)(C)COP(=O)(O)OP(=O)(O)OC[C@H]1O[C@@H](n2cnc3c(N)ncnc32)[C@H](O)[C@@H]1OP(=O)(O)O.
T3 construct: full-length soluble enzyme, pET28a, C-terminal His6 tag, E. coli BL21(DE3), Ni-NTA and gel filtration, homodimer ~90 kDa, PLP holoform
In words: DTNB assay of CoASH release, Michaelis-Menten fit. The data set is classed as biochemical, Sphingomonas paucimobilis. The conditions noted are these: co-substrate L-serine.
From the text: as §1

The target of data set [4] is T1, Sp SPT. Nature of the data set: UV-visible titration, absorbance change at […] nm (external aldimine). In kind it is binding. As to conditions: read-out: Kd ^L-ser.
Data set [5] has as its target T4, Sp SPT (Sphingomonas paucimobilis, UniProt Q93UV0, V246M).
T4 construct: full-length soluble enzyme, pET28a, C-terminal His6 tag, E. coli BL21(DE3), Ni-NTA and gel filtration, homodimer ~90 kDa, PLP holoform
T4 sequence (Q93UV0 1-420 V246M): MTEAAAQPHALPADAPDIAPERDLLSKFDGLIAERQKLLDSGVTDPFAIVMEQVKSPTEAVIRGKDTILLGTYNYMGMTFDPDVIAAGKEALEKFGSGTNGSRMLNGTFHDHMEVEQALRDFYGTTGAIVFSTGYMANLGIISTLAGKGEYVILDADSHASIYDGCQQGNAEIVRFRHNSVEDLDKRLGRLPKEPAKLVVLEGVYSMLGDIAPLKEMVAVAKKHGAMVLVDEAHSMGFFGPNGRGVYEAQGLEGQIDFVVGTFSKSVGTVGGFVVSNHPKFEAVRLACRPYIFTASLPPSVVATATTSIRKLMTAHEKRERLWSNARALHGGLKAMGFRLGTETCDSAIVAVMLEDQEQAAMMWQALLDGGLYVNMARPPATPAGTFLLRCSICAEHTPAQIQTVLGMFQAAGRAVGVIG
The data set is described as above. The data set is classed as binding. The conditions noted are these: read-out: Kd ^L-ser.

The target in data set [6] is T5, Sp SPT (Sphingomonas paucimobilis, UniProt Q93UV0, G385F).
T5 construct: full-length soluble enzyme, pET28a, C-terminal His6 tag, E. coli BL21(DE3), Ni-NTA and gel filtration, homodimer ~90 kDa, PLP holoform
T5 sequence (Q93UV0 1-420 G385F): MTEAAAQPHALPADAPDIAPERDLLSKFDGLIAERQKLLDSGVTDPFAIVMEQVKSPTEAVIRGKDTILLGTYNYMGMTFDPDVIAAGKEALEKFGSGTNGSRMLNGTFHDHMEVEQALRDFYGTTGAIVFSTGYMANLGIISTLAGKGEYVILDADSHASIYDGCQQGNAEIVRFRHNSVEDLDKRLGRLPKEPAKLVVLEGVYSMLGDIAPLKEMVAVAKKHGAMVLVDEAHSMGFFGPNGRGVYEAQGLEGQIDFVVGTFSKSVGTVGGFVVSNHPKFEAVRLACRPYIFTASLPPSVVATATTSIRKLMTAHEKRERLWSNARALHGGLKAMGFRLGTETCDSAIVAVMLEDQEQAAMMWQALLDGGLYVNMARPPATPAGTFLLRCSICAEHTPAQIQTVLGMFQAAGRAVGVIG
Described as above. In kind it is binding. The conditions noted are these: read-out: Kd ^L-ser.

Data set [7] addresses T1, Sp SPT. In words: UV-visible spectroscopy of internal aldimine. The data set is classed as binding. The conditions noted are these: covalent (imine to Lys265), 40 μM enzyme, 20 mM potassium phosphate pH 7.5, 150 mM NaCl, 25 °C.
Substrate in data set [8]: N[C@@H](CO)C(=O)O
In words: DTNB assay of CoASH release, Michaelis-Menten fit. The data set is classed as biochemical, Sphingomonas paucimobilis. As to conditions: co-substrate palmitoyl-CoA.
From the text: as §1

Substrate in data set [9]: CCCCCCCCCCCCCCCC(=O)SCCNC(=O)CCNC(=O)[C@H](O)C(C)(C)COP(=O)(O)OP(=O)(O)OC[C@H]1O[C@@H](n2cnc3c(N)ncnc32)[C@H](O)[C@@H]1OP(=O)(O)O
In words: DTNB assay of CoASH release, Michaelis-Menten fit. In kind it is biochemical, Sphingomonas paucimobilis. The conditions noted are these: co-substrate L-serine.
From the text: as §1

Data set [10] concerns the molecule itself. In words: SEC; size exclusion chromatography of the purified enzymes; data not shown. (In general: Size exclusion chromatography separates by hydrodynamic size, large species first.)

Eight molecules from paper PMC3794620, “The Pyridoxal 5′-Phosphate (PLP)-Dependent Enzyme Serine Palmitoyltransferase (SPT): Effects of the Small Subunits and Insights from Bacterial Mimics of Human hLCB2a HSAN1 Mutations” (BioMed Research International, 2013) can be followed below.

By Km is commonly meant the substrate concentration at which the rate is half of its maximum. The term kcat/Km denotes the turnover number divided by the Michaelis constant. Usually Kd stands for the free concentration of one partner at which half of the binding sites on the other are occupied at equilibrium, for simple one-to-one binding. Broadly, the stoichiometry N is a count of units in the complex or per binding partner.

With `CCCCCCCCCCCCCCCC(=O)CSCCNC(=O)CCNC(=O)[C@H](O)C(C)(C)COP(=O)(O)OP(=O)(O)OC[C@H]1O[C@@H](n2cnc3c(N)ncnc32)[C@H](O)[C@@H]1OP(=O)(O)O` [S-(2-oxoheptadecyl)-CoA], the “UV-visible spectroscopy, quinonoid peak at ~495 nm” value in data set [1] is listed as “Addition of the analogue to the PLP-L-serine external aldimine form of the wild-type SPT”.
In the case of “Sp SPT (Sphingomonas paucimobilis; G385F)”, in [2], the Km turned out to be 3000 ± 500 µM, the kcat is reported as 41 ± 2.0 × 10^-2 s^-1 and the catalytic efficiency (kcat/Km) stood at 136 M⁻¹ s⁻¹. In addition, in [3], the Km was determined as 52.2 ± 8.0 µM, the kcat is recorded as 41 ± 2.0 × 10^-2 s^-1 and the kcat/Km was determined as 7850 M⁻¹ s⁻¹.
`N[C@@H](CO)C(=O)O` [L-serine]: the results for the Kd in [4], in data set [5] and in [6] were 1100 ± 100 µM, 1500 ± 100 µM and 4700 ± 100 µM, respectively.
For `Cc1ncc(COP(=O)(O)O)c(C=O)c1O` [pyridoxal 5′-phosphate], in data set [7], the “UV-visible spectroscopy of internal aldimine” value is reported as “characteristic of the holo-, PLP-bound internal aldimine form of the enzyme”.
For the molecule “Sp SPT (Sphingomonas paucimobilis; V246M)”, in [2], the Km was determined as 2500 ± 200 µM, the kcat is reported as 44 ± 1.2 × 10^-2 s^-1 and the kcat/Km came to 176 M⁻¹ s⁻¹. In addition, in data set [3], the Michaelis constant (Km) turned out to be 128.0 ± 10.0 µM, the kcat is 44 ± 1.2 × 10^-2 s^-1 and the kcat/Km amounted to 3440 M⁻¹ s⁻¹.

B1: Sp SPT (Sphingomonas paucimobilis) (protein)
chain: MTEAAAQPHALPADAPDIAPERDLLSKFDGLIAERQKLLDSGVTDPFAIVMEQVKSPTEAVIRGKDTILLGTYNYMGMTFDPDVIAAGKEALEKFGSGTNGSRMLNGTFHDHMEVEQALRDFYGTTGAIVFSTGYMANLGIISTLAGKGEYVILDADSHASIYDGCQQGNAEIVRFRHNSVEDLDKRLGRLPKEPAKLVVLEGVYSMLGDIAPLKEMVAVAKKHGAMVLVDEAHSMGFFGPNGRGVYEAQGLEGQIDFVVGTFSKSVGTVGGFVVSNHPKFEAVRLACRPYIFTASLPPSVVATATTSIRKLMTAHEKRERLWSNARALHGGLKAMGFRLGTETCDSAIVAVMLEDQEQAAMMWQALLDGGLYVNMARPPATPAGTFLLRCSICAEHTPAQIQTVLGMFQAAGRAVGVIG
notes: full-length soluble enzyme, pET28a, C-terminal His6 tag, E. coli BL21(DE3), Ni-NTA and gel filtration, homodimer ~90 kDa, PLP holoform
Consider B1, for which, in data set [8], the Km was 1600 ± 90 µM, the kcat is given as 114 ± 2.0 × 10^-2 s^-1 and the kcat/Km stood at 712 M⁻¹ s⁻¹. Moreover, in data set [9], the Km is 35.6 ± 2.0 µM, the kcat was 114 ± 2.0 × 10^-2 s^-1 and the specificity constant (kcat/Km) worked out at 32000 M⁻¹ s⁻¹.

B2: Sphingomonas paucimobilis serine palmitoyltransferase V246M (mimic of hLCB2a V359M) (enzyme)
chain: MTEAAAQPHALPADAPDIAPERDLLSKFDGLIAERQKLLDSGVTDPFAIVMEQVKSPTEAVIRGKDTILLGTYNYMGMTFDPDVIAAGKEALEKFGSGTNGSRMLNGTFHDHMEVEQALRDFYGTTGAIVFSTGYMANLGIISTLAGKGEYVILDADSHASIYDGCQQGNAEIVRFRHNSVEDLDKRLGRLPKEPAKLVVLEGVYSMLGDIAPLKEMVAVAKKHGAMVLVDEAHSMGFFGPNGRGMYEAQGLEGQIDFVVGTFSKSVGTVGGFVVSNHPKFEAVRLACRPYIFTASLPPSVVATATTSIRKLMTAHEKRERLWSNARALHGGLKAMGFRLGTETCDSAIVAVMLEDQEQAAMMWQALLDGGLYVNMARPPATPAGTFLLRCSICAEHTPAQIQTVLGMFQAAGRAVGVIG
modifications: PLP cofactor covalently bound as an imine to Lys265
notes: serine palmitoyltransferase of Sphingomonas paucimobilis with V246M, made on pET 28a/Sp SPT; The PDB entries are of the wild-type parent; also called Sp SPT V246M; SPT V246M
For B2, the “stoichiometry N” value in data set [10] is 2.

B3: Sphingomonas paucimobilis serine palmitoyltransferase G385F (mimic of hLCB2a I504F) (enzyme)
chain: MTEAAAQPHALPADAPDIAPERDLLSKFDGLIAERQKLLDSGVTDPFAIVMEQVKSPTEAVIRGKDTILLGTYNYMGMTFDPDVIAAGKEALEKFGSGTNGSRMLNGTFHDHMEVEQALRDFYGTTGAIVFSTGYMANLGIISTLAGKGEYVILDADSHASIYDGCQQGNAEIVRFRHNSVEDLDKRLGRLPKEPAKLVVLEGVYSMLGDIAPLKEMVAVAKKHGAMVLVDEAHSMGFFGPNGRGVYEAQGLEGQIDFVVGTFSKSVGTVGGFVVSNHPKFEAVRLACRPYIFTASLPPSVVATATTSIRKLMTAHEKRERLWSNARALHGGLKAMGFRLGTETCDSAIVAVMLEDQEQAAMMWQALLDGGLYVNMARPPATPAFTFLLRCSICAEHTPAQIQTVLGMFQAAGRAVGVIG
modifications: PLP cofactor covalently bound as an imine to Lys265
notes: serine palmitoyltransferase of Sphingomonas paucimobilis with G385F, made on pET 28a/Sp SPT; The PDB entries are of the wild-type parent; also called Sp SPT G385F; SPT G385F
In the case of B3, in [10], the “stoichiometry N” value is 2.
